B1: cell derived SIRT3: SIRT3 enzyme derived from pull down of 293T cell extracts (protein)
chain: MAFWGWRAAAALRLWGRVVERVEAGGGVGPFQACGCRLVLGGRDDVSAGLRGSHGARGEPLDPARPLQRPPRPEVPRAFRRQPRAAAPSFFFSSIKGGRRSISFSVGASSVVGSGGSSDKGKLSLQDVAELIRARACQRVVVMVGAGISTPSGIPDFRSPGSGLYSNLQQYDLPYPEAIFELPFFFHNPKPFFTLAKELYPGNYKPNVTHYFLRLLHDKGLLLRLYTQNIDGLERVSGIPASKLVEAHGTFASATCTVCQRPFPGEDIRADVMADRVPRCPVCTGVVKPDIVFFGEPLPQRFLLHVVDFPMADLLLILGTSLEVEPFASLTEAVRSSVPRLLINRDLVGPLAWHPRSRDVAQLGDVVHGVESLVELLGWTEEMRDLVQRETGKLDGPDK
modifications: left off: large carriers
notes: SIRT3 enzyme derived from pull down of 293T cell extracts
B2: recombinant GST-SIRT2: recombinant GST fusion of human SIRT2, NAD-dependent deacetylase (protein)
chain: MAEPDPSHPLETQAGKVQEAQDSDSDSEGGAAGGEADMDFLRNLFSQTLSLGSQKERLLDELTLEGVARYMQSERCRRVICLVGAGISTSAGIPDFRSPSTGLYDNLEKYHLPYPEAIFEISYFKKHPEPFFALAKELYPGQFKPTICHYFMRLLKDKGLLLRCYTQNIDTLERIAGLEQEDLVEAHGTFYTSHCVSASCRHEYPLSWMKEKIFSEVTPKCEDCQSLVKPDIVFFGESLPARFFSCMQSDFLKVDLLLVMGTSLQVQPFASLISKAPLSTPRLLINKEKAGQSDPFLGMIMGLGGGMDFDSKKAYRDVAWLGECDQGCLALAELLGWKKELEDLVRREHASIDAQSGAGVPNPSTSASPKKSPPPAKDEARTTEREKPQ
modifications: left off: a dimerising Fc or GST
notes: recombinant GST fusion of human SIRT2, NAD-dependent deacetylase
B3: recombinant GST-SIRT3: recombinant GST fusion of a fragment of human SIRT3 lacking the first 100 amino acids of the N-terminus (protein)
chain: SISFSVGASSVVGSGGSSDKGKLSLQDVAELIRARACQRVVVMVGAGISTPSGIPDFRSPGSGLYSNLQQYDLPYPEAIFELPFFFHNPKPFFTLAKELYPGNYKPNVTHYFLRLLHDKGLLLRLYTQNIDGLERVSGIPASKLVEAHGTFASATCTVCQRPFPGEDIRADVMADRVPRCPVCTGVVKPDIVFFGEPLPQRFLLHVVDFPMADLLLILGTSLEVEPFASLTEAVRSSVPRLLINRDLVGPLAWHPRSRDVAQLGDVVHGVESLVELLGWTEEMRDLVQRETGKLDGPDK
modifications: left off: a dimerising Fc or GST
notes: recombinant GST fusion of a fragment of human SIRT3 lacking the first 100 amino acids of the N-terminus

Legend:
[1] = system: chemically acetylated cytochrome c; test: 14C-nicotinamide release assay of deacetylation activity; type: biochemical; details: in vitro, enzyme from pull down of 293T cell extracts, GFP as control
Procedure: (§1) The activity of these proteins was determined in vitro using either a ^14C-nicotinamide release assay or a titrated acetate release assay.
Cell derived GST-SIRT3 deacetylation activity was tested on chemically acetylated cytochrome c. The SIRT3 was derived from “pull down” 293T extracts.
Deacetylation activity was determined in vitro using a ^14C-nicotinamide release assay. Deacetylation was determined for GFP (control) with chemically acetylated cytochrome c, SIRT3-GFP with chemically acetylated cytochrome c, and SIRT3-GFP with histone 4.

[2] = system: chemically acetylated cytochrome c; test: titrated acetate release assay of deacetylation activity; type: biochemical; details: in vitro, in the presence and absence of NAD
Procedure: as §1
Recombinant GST-SIRT2 deacetylation activity was tested on chemically acetylated cytochrome c in the presence and absence of NAD. Deacetylation activity was determined in vitro using a titrated acetate release assay.
Recombinant GST-SIRT3 deacetylation activity was tested on chemically acetylated cytochrome c in the presence and absence of NAD. The recombinant SIRT3 was a fragment of human SIRT3 lacking the first 100 amino acids of the N-terminus of full length human SIRT3. Deacetylation activity was determined in vitro using a titrated acetate release assay.

Molecule	deacetylation activity on chemically acetylated cytochrome c [1]	deacetylation activity on chemically acetylated cytochrome c [2]
B1	deacetylates cytochrome c	–
B2	–	deacetylates cytochrome c in a NAD dependent manner
B3	–	deacetylates cytochrome c in a NAD dependent manner
